Changes are numbered by the printed parent chain. Names and notes keep the numbering of the source.
T1: GINS tetramer (Sld5, Psf1, Psf2, Psf3), S. cerevisiae (S. cerevisiae, UniProt Q03406 1-294; Q12488 1-208; P40359 1-213; Q12146 1-194)
T1 construct: Sld5, GINS subunit, S. cerevisiae; Psf1, GINS subunit, S. cerevisiae; Psf2, GINS subunit, S. cerevisiae; Psf3, GINS subunit, S. cerevisiae; pJL005 with TwinStrep-Psf3; also called tetrameric GINS complex; source: purified as previously described (Yeeles et al, 2015; Lewis et al, 2022); copies: + + +
T1 sequence (looked up) 1: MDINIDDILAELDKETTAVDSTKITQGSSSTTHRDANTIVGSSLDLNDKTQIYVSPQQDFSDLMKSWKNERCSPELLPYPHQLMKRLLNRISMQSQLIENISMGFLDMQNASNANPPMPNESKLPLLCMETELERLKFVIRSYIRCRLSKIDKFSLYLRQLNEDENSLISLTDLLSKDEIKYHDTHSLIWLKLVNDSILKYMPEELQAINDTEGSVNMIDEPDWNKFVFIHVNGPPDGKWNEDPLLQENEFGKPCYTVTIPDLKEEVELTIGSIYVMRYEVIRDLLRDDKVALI
T1 sequence (looked up) 2: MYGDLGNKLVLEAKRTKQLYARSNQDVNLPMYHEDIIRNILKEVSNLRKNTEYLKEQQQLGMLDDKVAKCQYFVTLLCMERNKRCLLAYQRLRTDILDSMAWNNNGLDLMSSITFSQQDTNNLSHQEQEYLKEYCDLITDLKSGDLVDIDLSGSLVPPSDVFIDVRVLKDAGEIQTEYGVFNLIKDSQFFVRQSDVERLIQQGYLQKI
T1 sequence (looked up) 3: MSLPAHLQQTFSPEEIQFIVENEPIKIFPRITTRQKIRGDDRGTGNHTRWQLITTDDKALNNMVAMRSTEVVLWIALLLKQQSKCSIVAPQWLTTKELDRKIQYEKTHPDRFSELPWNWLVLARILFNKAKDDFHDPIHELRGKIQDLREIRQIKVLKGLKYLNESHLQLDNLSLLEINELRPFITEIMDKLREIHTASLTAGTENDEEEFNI
T1 sequence (looked up) 4: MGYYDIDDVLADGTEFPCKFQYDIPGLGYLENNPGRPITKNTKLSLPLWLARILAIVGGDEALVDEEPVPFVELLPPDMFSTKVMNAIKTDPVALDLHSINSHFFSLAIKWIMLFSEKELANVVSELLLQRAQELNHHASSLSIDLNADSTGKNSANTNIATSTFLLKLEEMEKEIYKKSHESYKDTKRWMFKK

B1: Rrm3 (wild-type, FLAG-tagged) (enzyme, S. cerevisiae, UniProt P38766 1-723, looked up)
chain: MFRSHASGNKKQWSKRSSNGSTPAASASGSHAYRQQTLSSFFMGCGKKSAAASKNSTTIIDLESGDEGNRNITAPPRPRLIRNNSSSLFSQSQGSFGDDDPDAEFKKLVDVPRLNSYKKSSRSLSMTSSLHKTASASTTQKTYHFDEDETLREVTSVKSNSRQLSFTSTINIEDSSMKLSTDSERPAKRSKPSMEFQGLKLTVPKKIKPLLRKTVSNMDSMNHRSASSPVVLTMEQERVVNLIVKKRTNVFYTGSAGTGKSVILQTIIRQLSSLYGKESIAITASTGLAAVTIGGSTLHKWSGIGIGNKTIDQLVKKIQSQKDLLAAWRYTKVLIIDEISMVDGNLLDKLEQIARRIRKNDDPFGGIQLVLTGDFFQLPPVAKKDEHNVVKFCFESEMWKRCIQKTILLTKVFRQQDNKLIDILNAIRYGELTVDIAKTIRNLNRDIDYADGIAPTELYATRREVELSNVKKLQSLPGDLYEFKAVDNAPERYQAILDSSLMVEKVVALKEDAQVMMLKNKPDVELVNGSLGKVLFFVTESLVVKMKEIYKIVDDEVVMDMRLVSRVIGNPLLKESKEFRQDLNARPLARLERLKILINYAVKISPHKEKFPYVRWTVGKNKYIHELMVPERFPIDIPRENVGLERTQIPLMLCWALSIHKAQGQTIQRLKVDLRRIFEAGQVYVALSRAVTMDTLQVLNFDPGKIRTNERVKDFYKRLETLK
notes: Rrm3 Pif1-family 5'-3' DNA helicase, S. cerevisiae; helicase domain printed as residues 230-723; Gene codon optimised for expression; a TEV site lies between the 3FLAG tag and Rrm3; also called WT Rrm3; full-length Rrm3; source: S. cerevisiae strain yTDK9, purified (anti-FLAG M2 resin, HiTrap heparin); not shown: 3FLAG, N-terminal, kept
B2: Rrm3-2E (Rrm3 K118E, R122E) (enzyme, S. cerevisiae, UniProt P38766 1-723, looked up)
chain: B1 chain with K118E, R122E
notes: Built in the wild-type expression plasmid pTDK15 (pOO8); also called 3FLAG-TEV-RRM3-2E; source: S. cerevisiae strain yOO4, purified (anti-FLAG M2 resin, HiTrap heparin); not shown: 3FLAG, N-terminal, kept

Columns and labels:
Details in all cases: both partners purified
[1] = target: T1, GINS tetramer (Sld5, Psf1, Psf2, Psf3), …; assay: co-IP; purified proteins mixed: 10 nM FLAG-Rrm3 with 15 nM GINS, 10 min on ice; anti-FLAG M2 magnetic beads; 25 mM Hepes-KOH pH 7.6, 200 mM KOAc, 0.02% NP-40-S, 0.1 mg/mL BSA, 1 mM DTT, 10 mM Mg(OAc)2; immunoblotting
[2] = target: T2, DNA polymerase ε (Pol2, Dpb2, Dpb3, Dpb4), S. cerevisiae (S. cerevisiae, UniProt P21951 1-2222; P24482 1-689; P27344 1-201; Q04603 1-196); assay: co-IP; purified proteins mixed: 10 nM FLAG-Rrm3 with 15 nM Pol ε, 10 min on ice; anti-FLAG M2 magnetic beads; 25 mM Hepes-KOH pH 7.6, 400 mM KOAc, 0.02% NP-40-S, 0.1 mg/mL BSA, 1 mM DTT, 10 mM Mg(OAc)2; immunoblotting
T2 construct: Pol2, catalytic subunit of DNA polymerase ε, S. cerevisiae; Dpb2, second largest subunit of DNA polymerase ε, S. cerevisiae; Dpb3, subunit of DNA polymerase ε, S. cerevisiae; Dpb4, subunit of DNA polymerase ε, S. cerevisiae (DPB4-TEV-CBP); also called Polε; Pol ε; source: S. cerevisiae strain yAJ2, purified as previously described (Yeeles et al, 2015); copies: + + +
T2 sequence (P21951 whole entry, chain 1 of 4): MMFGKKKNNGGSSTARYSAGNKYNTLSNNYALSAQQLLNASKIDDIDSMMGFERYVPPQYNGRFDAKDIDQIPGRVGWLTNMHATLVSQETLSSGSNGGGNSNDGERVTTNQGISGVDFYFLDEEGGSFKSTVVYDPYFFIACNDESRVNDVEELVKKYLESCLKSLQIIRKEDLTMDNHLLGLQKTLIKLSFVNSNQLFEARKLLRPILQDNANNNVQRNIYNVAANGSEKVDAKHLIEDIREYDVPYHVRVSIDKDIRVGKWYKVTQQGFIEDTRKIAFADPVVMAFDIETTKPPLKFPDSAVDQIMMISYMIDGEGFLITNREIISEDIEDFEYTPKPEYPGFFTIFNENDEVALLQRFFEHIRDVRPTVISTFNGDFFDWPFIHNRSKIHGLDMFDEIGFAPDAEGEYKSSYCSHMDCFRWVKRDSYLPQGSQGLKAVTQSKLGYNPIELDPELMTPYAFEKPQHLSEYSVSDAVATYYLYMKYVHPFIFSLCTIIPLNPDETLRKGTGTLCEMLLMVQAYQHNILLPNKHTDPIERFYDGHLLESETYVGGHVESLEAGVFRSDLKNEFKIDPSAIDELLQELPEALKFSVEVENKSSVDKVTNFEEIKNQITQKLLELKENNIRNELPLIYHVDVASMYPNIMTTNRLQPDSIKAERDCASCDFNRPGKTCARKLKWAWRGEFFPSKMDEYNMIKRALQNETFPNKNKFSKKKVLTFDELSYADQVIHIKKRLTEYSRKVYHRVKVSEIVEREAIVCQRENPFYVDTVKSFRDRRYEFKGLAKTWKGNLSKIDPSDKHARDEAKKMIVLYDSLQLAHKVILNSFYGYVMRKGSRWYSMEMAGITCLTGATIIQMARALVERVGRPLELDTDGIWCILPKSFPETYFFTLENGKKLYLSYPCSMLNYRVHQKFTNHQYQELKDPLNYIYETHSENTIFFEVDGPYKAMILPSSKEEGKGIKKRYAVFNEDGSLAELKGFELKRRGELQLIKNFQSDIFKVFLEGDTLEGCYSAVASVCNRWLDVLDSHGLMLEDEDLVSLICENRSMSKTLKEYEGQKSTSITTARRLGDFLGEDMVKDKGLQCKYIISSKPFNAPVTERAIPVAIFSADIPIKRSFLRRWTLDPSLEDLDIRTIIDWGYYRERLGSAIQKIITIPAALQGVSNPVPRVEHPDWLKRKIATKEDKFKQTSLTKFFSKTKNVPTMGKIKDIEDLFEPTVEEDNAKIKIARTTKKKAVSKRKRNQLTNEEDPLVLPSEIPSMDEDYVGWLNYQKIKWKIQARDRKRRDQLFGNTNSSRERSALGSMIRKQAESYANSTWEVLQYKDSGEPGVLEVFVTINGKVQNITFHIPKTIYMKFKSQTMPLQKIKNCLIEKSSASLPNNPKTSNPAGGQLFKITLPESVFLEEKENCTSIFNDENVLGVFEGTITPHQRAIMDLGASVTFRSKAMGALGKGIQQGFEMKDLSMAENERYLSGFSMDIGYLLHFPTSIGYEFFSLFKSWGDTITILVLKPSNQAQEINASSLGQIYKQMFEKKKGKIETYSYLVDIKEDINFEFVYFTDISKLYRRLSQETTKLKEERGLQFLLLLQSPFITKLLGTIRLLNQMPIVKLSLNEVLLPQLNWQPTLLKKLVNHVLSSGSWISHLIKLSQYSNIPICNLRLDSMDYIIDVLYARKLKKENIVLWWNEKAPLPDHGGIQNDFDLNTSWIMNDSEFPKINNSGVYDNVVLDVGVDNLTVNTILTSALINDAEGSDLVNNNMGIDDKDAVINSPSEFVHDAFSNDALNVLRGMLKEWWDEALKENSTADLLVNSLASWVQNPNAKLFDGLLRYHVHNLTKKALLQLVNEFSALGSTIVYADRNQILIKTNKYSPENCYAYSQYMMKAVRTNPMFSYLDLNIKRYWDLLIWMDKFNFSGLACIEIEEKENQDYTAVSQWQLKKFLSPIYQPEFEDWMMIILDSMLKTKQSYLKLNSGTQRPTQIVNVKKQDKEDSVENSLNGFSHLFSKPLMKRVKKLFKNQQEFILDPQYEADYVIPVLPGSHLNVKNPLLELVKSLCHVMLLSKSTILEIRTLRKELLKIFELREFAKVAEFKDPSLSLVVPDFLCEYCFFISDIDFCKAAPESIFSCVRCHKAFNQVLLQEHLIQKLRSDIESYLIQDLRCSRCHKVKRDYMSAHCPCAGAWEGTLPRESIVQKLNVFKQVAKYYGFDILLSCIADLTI
T2 sequence (P24482 whole entry, chain 2 of 4): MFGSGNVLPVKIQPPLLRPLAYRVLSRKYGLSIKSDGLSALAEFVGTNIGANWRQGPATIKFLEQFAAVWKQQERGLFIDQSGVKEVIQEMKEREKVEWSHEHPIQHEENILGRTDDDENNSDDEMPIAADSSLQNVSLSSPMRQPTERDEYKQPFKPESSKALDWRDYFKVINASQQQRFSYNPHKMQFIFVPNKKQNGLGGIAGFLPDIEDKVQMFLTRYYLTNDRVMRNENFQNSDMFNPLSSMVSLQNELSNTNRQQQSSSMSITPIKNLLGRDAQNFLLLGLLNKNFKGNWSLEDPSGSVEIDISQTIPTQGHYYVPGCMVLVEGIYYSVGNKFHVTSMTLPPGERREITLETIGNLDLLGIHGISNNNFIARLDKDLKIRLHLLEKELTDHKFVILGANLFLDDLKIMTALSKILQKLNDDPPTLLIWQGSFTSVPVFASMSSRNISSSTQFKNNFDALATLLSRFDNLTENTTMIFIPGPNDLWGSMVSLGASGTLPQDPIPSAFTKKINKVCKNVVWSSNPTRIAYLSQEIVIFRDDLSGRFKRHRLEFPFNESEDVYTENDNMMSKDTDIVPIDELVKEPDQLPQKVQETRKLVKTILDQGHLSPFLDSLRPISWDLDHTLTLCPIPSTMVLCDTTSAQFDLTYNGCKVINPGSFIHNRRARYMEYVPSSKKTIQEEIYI
T2 sequence (P27344 whole entry, chain 3 of 4): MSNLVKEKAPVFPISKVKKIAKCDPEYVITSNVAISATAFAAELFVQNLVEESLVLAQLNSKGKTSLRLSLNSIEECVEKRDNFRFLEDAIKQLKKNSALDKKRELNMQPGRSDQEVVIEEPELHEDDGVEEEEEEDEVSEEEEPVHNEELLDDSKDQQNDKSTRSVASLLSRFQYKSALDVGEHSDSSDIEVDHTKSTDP
T2 sequence (Q04603 whole entry, chain 4 of 4): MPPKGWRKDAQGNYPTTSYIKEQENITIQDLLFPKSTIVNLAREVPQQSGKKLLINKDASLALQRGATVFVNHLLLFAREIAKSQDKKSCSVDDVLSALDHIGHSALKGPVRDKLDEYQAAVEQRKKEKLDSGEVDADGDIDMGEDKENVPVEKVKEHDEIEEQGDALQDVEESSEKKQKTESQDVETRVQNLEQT

[3] = target: T3, CMGE (budding yeast CMG helicase, Cdc45-Mcm2-7-GINS, together with DNA polymerase ε) (S. cerevisiae, UniProt P29469 1-868; P24279 1-971; P30665 1-933; P29496 1-775; P53091 1-1017; P38132 …); assay: co-IP; purified proteins mixed: 1–10 nM Rrm3/Rrm3N-BacPif1/BacPif1 with 15 nM CMG and 30 nM Pol ε, 10 min on ice; anti-Sld5 beads, 30 min 4 °C; 25 mM Hepes-KOH pH 7.6, 400 mM KOAc, 0.02% NP-40-S, 0.1 mg/mL BSA, 1 mM DTT, 10 mM Mg(OAc)2; immunoblotting
T3 construct: Mcm2, S. cerevisiae, subunit of CMG; Mcm3, S. cerevisiae, subunit of CMG (CBP-TEV-MCM3); Mcm4, S. cerevisiae, subunit of CMG; Mcm5, S. cerevisiae, subunit of CMG; Mcm6, S. cerevisiae, subunit of CMG; Mcm7, S. cerevisiae, subunit of CMG; Cdc45, S. cerevisiae, subunit of CMG (CDC45iFLAG2, internal FLAG tag; detected by anti-FLAG immunoblotting); Sld5, S. cerevisiae, GINS subunit of CMG …

| Binder | binding result [1] | binding result [2] | binding result [3] |
| --- | --- | --- | --- |
| B1 | binds | binds | binds |
| B2 | – | binds | binds |
